The values below come from PMC8464079.

Positions count from the first letter of the chain named.

Experiment in all cases: fluorescence polarization
The target of data set [1] is T1, MUT-4G (Caenorhabditis elegans, UniProt Q09487 172-535, N318S;H319N;Q322E).
T1 sequence: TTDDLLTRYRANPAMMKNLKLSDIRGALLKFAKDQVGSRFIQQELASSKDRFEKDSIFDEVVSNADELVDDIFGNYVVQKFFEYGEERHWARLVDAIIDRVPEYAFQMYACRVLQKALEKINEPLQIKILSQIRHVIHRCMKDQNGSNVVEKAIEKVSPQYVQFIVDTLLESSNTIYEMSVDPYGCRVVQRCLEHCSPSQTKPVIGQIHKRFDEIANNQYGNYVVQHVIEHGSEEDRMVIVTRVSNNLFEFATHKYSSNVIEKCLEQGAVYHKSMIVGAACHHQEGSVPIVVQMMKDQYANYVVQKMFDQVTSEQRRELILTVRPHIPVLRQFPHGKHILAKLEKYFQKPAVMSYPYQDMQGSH

In data set [2] the target is T2, MUT-8G (Caenorhabditis elegans, UniProt Q09487 172-535, N472S;Y473N;Q476E).
T2 sequence: T1 sequence with S147N, N148H, E151Q, N301S, Y302N, Q305E

The target of data set [3] is T3, MUT-#13 (K513R) (Caenorhabditis elegans, UniProt Q09487 172-535, K513R).
T3 sequence: T1 sequence with S147N, N148H, E151Q, K342R

Data set [4] concerns the target T4, MUT-4A (Caenorhabditis elegans, UniProt Q09487 172-535, N318C;H319R).
T4 sequence: T1 sequence with S147C, N148R, E151Q

The target of data set [5] is T5, MUT-#9 (Q476A) (Caenorhabditis elegans, UniProt Q09487 172-535, Q476A).
T5 sequence: T1 sequence with S147N, N148H, E151Q, Q305A

Data set [6] addresses T6, PUF-8 WT (FP) (Caenorhabditis elegans, UniProt Q09487 172-535).
T6 sequence: T1 sequence with S147N, N148H, E151Q

For the molecule UGUAAAUA (ssRNA) [PBE-5A FAM], the Kd was determined as 239 ± 48 nM in data set [1]; 60 ± 13.2 nM in data set [3]; 0.44 ± 0.39 nM in data set [4]; 63.5 ± 11.1 nM in data set [5]; 2.49 ± 1.5 nM in data set [6]. In addition, the binding result in data set [2] is given as “no binding”.
